The source of these data is patent US20240294624A1, “ANTI-ERYTHROPOIETIN ANTIBODY” (ANDREMACON S.R.L., priority 2021, published 2024).

For assay [1], the system named is primary TMZ-resistant glioblastoma stem cells (GSC-R). The assay can be described thus: MTT viability of chemo-resistant cells. The note with it: Homo sapiens, Glioblastoma stem cell, 96 h, read-out: percent survival / viability.
Method: In detail, GSCs and U87 parental cell line, which are sensitive to TMZ, were first maintained in low doses of TMZ (25 μM) and then successively exposed for two months to incremental doses of 25 μM of TMZ each time (up to 500 μM). After the killing of a majority of the cells, the surviving cells were maintained until a normal rate of growth were obtained. […] Cell viability was assessed by 3-(4,5-Dimethylthiazol-2-yl)-2,5-Diphenyl-tetrazoliumBromide (MTT) assay, as a function of redox potential (FIG. 24). Cells (5×10^3/well) were seeded and cultured in 96-well plate for 24 h in Basal Medium (BM). Then, culture media were replaced with fresh media containing the specific treatments, or in BM as a control condition (CTR).
Test was performed in triplicate after 96 h of treatment, by replacing culture media with 100 μL of fresh media added with 10 μL of MTT 5 mg/ml in D-PBS. After 4 h of incubation, media were removed and cells were lysed with 100 μL of 2-propanol/formic acid (95:5, by vol) for 10 min. Then, absorbance was read at 570 nm in microplate reader.
The target in the next assay is T1, EphB4 (Homo sapiens, UniProt P54760).
T1 sequence (P54760 16-987): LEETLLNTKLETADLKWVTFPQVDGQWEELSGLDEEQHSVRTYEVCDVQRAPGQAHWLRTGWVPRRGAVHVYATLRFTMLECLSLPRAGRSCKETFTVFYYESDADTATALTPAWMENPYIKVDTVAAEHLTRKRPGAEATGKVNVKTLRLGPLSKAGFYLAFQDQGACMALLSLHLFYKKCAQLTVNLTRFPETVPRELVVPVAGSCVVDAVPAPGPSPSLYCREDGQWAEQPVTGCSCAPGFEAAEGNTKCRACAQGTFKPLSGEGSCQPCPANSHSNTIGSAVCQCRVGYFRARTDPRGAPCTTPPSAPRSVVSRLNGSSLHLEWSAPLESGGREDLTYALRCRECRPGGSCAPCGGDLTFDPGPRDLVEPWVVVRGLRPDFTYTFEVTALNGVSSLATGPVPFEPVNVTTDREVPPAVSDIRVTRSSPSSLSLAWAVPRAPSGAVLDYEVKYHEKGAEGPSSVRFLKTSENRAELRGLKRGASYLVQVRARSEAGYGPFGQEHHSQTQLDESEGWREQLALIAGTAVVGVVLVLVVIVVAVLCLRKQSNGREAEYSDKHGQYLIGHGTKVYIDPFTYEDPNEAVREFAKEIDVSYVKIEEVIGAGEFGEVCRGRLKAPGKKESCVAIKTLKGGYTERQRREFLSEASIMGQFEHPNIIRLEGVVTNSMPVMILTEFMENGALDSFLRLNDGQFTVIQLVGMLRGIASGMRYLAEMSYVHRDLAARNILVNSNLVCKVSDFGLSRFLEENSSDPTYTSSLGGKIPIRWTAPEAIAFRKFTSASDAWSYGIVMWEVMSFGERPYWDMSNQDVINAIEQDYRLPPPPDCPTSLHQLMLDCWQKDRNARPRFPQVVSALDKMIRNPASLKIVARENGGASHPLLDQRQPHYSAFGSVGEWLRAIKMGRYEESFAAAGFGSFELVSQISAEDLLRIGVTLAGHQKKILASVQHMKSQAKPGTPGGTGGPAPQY
The following applies: Epo for EphB4; cited from earlier work.

In assay [2] the target is T2, murine EPO (murine, UniProt P07321 27-192, limits assumed).
T2 construct: also called mEPO; m-EPO
T2 sequence (looked up): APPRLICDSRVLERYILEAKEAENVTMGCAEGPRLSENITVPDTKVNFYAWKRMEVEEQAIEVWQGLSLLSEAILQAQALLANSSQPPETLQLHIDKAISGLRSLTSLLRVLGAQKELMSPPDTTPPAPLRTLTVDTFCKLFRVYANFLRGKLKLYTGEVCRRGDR
The assay is described as follows: SPR (ProteOn XPR36), anti-EPO (C4) immobilized by amine coupling, EPO as analyte; murine EPO; fitted value.

For assay [3], the target named is T2, murine EPO. The assay is described as follows: SPR (ProteOn XPR36), anti-EPO (C4) immobilized by amine coupling, EPO as analyte; murine EPO.

As to `Cn1nnc2c(C(N)=O)ncn2c1=O` [TMZ, Temozolomide], in assay [1], the viability at 100 µM was around 93%.

Take “Epo: 30.4 kDa glycoprotein, main erythropoietic hormone”: in the assay with EphB4, the Kd (usually the concentration at which binding is half-saturated) is 880 nM.

B1: anti-EPO (C4) monoclonal antibody (antibody, V domains shown)
VH: EVKLQESGGGLVQPGGSLKLSCAASGFTFSTYTMSWVRQTPEKRLEWVAYISNGGDRTYYPDTVKGRFTISRDDAKNTLFLQMSSLKSEDTAMYYCARHNITTVPFTMDYWGQGTSVTVSS
VL: DIVLTQSPASLAVSLGQRATISCRASESVDYYGTGLMQWYQQRPGQPPKLLIYGASNVGSGVPARFSGSGSGTDFSLNIHPVEGDDIAMYFCQQTRKVPSTFGGGTKLEIK
notes: also called C4 antibody; anti-EPO (C4) mAB
In the case of B1, in the assay with murine EPO [2], the affinity, expressed as Kd, was 1010 nM. In addition, in the assay with murine EPO [3], the koff (commonly the first-order rate constant of dissociation) is 0.000669 s⁻¹ and the kon – broadly, the rate constant with which the complex forms – turned out to be 663 M⁻¹ s⁻¹.
